Experimental data: paper PMC9918737

What was measured:
[1] = target: ubH2B mono-nucleosome (H2B mono-ubiquitinated at lysine 120) (UniProt P0C0S8); assay: single-molecule magnetic tweezers (force-jump); 409-bp nucleosome tethered between coverslip and bead, 83 nM FACT in the flow cell, force jumps between 0.1 pN and 11 pN (H2B-nucleosome) or 6 pN (ubH2B-nucleosome), Kd from the ratio of free to FACT-bound states, 25 °C
[2] = target: ubH2B mono-nucleosome (H2B mono-ubiquitinated at lysine 120) (UniProt P0C0S8)
[3] = target: unmodified H2B mono-nucleosome (UniProt P0C0S8)

“recombinant FACT complex (Flag-SPT16 and His6-SSRP1) (from UniProt Q9Y5B9 1-1047; Q08945 1-709)” showed a Kd [1] of 8 nM, a rupture force of the inner DNA wrap of ubH2B-nucleosome in the presence of FACT (magnetic tweezers) [2] of 20 pN and a rupture force of the outer DNA wrap of ubH2B-nucleosome in the presence of FACT (magnetic tweezers) [2] of 10 pN. For the same substance, the tension at which the H2B-nucleosome is completely disrupted in the presence of FACT (magnetic tweezers, repeated stretching) [3] was less than 10 pN.
